Source: patent publication US20110130449

Tests used:
[1] = tested on: AR(me2asym)TKQTARKSTGGKAPPK
[2] = tested on: AR(me2sym)TKQTARKSTGGKAPPK

Row | Substance | activity (hydroxylation of the peptide by Jmjd6, MALDI-TOF MS) [1] | activity (hydroxylation of the peptide by Jmjd6, MALDI-TOF MS) [2] | Jmj6 hydroxylation activity (standard assay, MALDI-TOF MS) (NPKRSRSREHRR (peptide d)) | position of hydroxylation (MS/MS) (NPKRSRSREHRR (peptide d)) | hydroxylation of the peptide by Jmjd6 (peptide f) | hydroxylation of the peptide by Jmjd6 (peptide g) | hydroxylation of the peptide (MALDI-TOF MS), large scale (NPKRSRSREHRR (peptide d))
1 | N-terminally His6-tagged human Jmjd6 (residues 1-343) | Double hydroxylation no demethylation | Double hydroxylation no demethylation | both the truncated Jmjd6 polypeptides and full-length Jmjd6 hydroxylated peptide d | consistent with the hydroxylation of lysine-3 in peptide d, corresponding to lysine 269 in LUC-like2 | Peptides f and g, which do not contain any lysine residues, were not hydroxylated by Jmjd6. | Peptides f and g, which do not contain any lysine residues, were not hydroxylated by Jmjd6. | 
2 | full-length Jmjd6 (recombinant) |  |  | both the truncated Jmjd6 polypeptides and full-length Jmjd6 hydroxylated peptide d |  |  |  | leaving the assay mixture overnight at room temperature till peptide showed complete hydroxylation
